Measured values taken from IntAct's records for PubMed 17805301.

B1: CREB-regulated transcription coactivator 2 (Mus musculus), Q3U182 (parent)
chain: MATSGANGPGSATASASNPRKFSEKIALQKQRQAEETAAFEEVMMDIGSTRLQAQKLRLAYTRSSHYGGSLPNVNQIGCGLAEFQSPLHSPLDSSRSTRHHGLVERVQRDARRMVSPLRRYPRHIDSSPYSPAYLSPPPESGWRRMMPWGNLPAEKGQLFRLPSALNRTSSDSALHTSVMNPNPQDTYPGPTPPSVLPSRRGGGFLDGEMDAKVPAIEENVVDDKHLLKPWDAKKLSSSSSRPRSCEVPGINIFPSPDQPANVPVLPPAMNTGGSLPDLTNLHFPPPLPTPLDPEETVYPSLSGGNSTTNLTHTMTHLGISGGLGLGPSYDVPGLHSPLSHPSLQSSLSNPNLQASLSSPQPQLQGSHSHPSLPASSLAHHALPTTSLGHPSLSAPALSSSSSSSSTSSPVLSAPPYPASTPGASPRHRRVPLSPLSLPAGPADARRSQQQLPKQFSPTMSPTLSSITQGVPLDTSKLPTDQRLPPYPYSPPSLVIPTHPPTPKSLQQLPSQACLVQPSGGQPPGRQPHYGALYPPGSSGHGQQPYHRPINDFSLGNLEQFNMESPSTSLVLDPPAFSEGPGFLGSEGSMSGPQDPHVLNHQNLTHCSRHGSGPNIILTGDSSPGFSKEIAAALAGVPGFEVSASGLELGLGLEDELRMEPLGLEGLTMLSDPCALLPDPAVEDSFRSDRLQ

Variants of: B1
Conditions: with cop1_mouse Cop1, Q9R1A8
Chain of cop1_mouse Cop1, Q9R1A8 (Q9R1A8 whole entry): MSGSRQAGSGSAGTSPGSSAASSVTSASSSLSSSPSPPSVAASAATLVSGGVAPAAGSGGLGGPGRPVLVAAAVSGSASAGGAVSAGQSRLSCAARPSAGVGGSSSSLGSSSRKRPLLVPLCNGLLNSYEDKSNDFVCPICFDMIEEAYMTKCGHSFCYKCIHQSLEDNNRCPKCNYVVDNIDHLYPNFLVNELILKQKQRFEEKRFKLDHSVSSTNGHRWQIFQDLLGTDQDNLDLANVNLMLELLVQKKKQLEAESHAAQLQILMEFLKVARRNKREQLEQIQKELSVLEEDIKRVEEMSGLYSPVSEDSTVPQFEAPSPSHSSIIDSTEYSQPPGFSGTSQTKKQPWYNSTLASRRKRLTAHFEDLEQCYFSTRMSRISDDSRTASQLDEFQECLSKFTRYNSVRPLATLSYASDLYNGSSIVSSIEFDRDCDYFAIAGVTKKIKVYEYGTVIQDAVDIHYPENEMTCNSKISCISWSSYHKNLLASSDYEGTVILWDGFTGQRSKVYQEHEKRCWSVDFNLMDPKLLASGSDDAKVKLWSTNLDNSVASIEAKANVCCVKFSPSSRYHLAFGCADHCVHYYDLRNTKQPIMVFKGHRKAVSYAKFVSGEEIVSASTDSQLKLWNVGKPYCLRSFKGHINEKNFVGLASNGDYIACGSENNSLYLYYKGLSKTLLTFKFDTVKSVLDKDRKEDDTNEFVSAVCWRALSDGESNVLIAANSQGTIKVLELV

Variant | effect of a mutation on the interaction
V214A;P215A | disrupting interaction strength
